Experiments:
Rr-S15 = Rr-S15 (UniProt A0ABD5LGG5 1-89); test: filter binding; 50 mM Tris/acetate pH 7.5, 20 mM Mg-acetate, 270 mM KCl, 5 mM DTT, 0.02% BSA, RNA <1 nM, 30 min at 25 C (thermophile RNAs also at 55 C); conditions: protein: recombinant; label: 5'-32P
Tt-S15 = Tt-S15 (Thermus thermophilus, UniProt Q5SJ76); test: as above; conditions: protein: recombinant, label: 5'-32P
Ec-S15 [1] = molecular target: T1, Ec-S15 (Escherichia coli, UniProt P0ADZ4 1-89); test: as above
Gk-S15 [2] = molecular target: T2, Gk-S15 (UniProt Q5L0I3 1-89); test: as above; conditions: protein: recombinant, label: 5'-32P
Ec-S15 [3] = molecular target: T1, Ec-S15; test: filter binding; 5'-32P and 3'-pCp label; 50 mM Tris/acetate pH 7.5, 20 mM Mg-acetate, 270 mM KCl, 5 mM DTT, 0.02% BSA, RNA <1 nM, 30 min at 25 C (thermophile RNAs also at 55 C)
Gk-S15 [4] = molecular target: T2, Gk-S15; test: filter binding; max fraction bound <20%; 50 mM Tris/acetate pH 7.5, 20 mM Mg-acetate, 270 mM KCl, 5 mM DTT, 0.02% BSA, RNA <1 nM, 30 min at 25 C (thermophile RNAs also at 55 C); conditions: protein: recombinant; label: 5'-32P

Tt-S15, sequence (Q5SJ76 2-89): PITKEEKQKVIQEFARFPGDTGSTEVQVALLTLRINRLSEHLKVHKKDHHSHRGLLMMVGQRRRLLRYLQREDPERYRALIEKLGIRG
Rr-S15, sequence (A0ABD5LGG5 entry or part of it): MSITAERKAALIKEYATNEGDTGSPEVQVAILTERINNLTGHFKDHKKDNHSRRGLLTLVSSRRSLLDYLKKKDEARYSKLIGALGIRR

B1: Gk-mRNA M2 (structured_RNA)
RNA: GGUCAAUGUAUGCGAACCAUUCUCCGGCUAGGCGAGUCACCGACGCCCGCUCGGCAAUCGGGGAUCUAGGACUAGGGAGGUGAACAAGGAUGGCAUUGAA
**Q.** Does B1 bind (Rr-S15)?
**A.** no binding

**Q.** Does B1 bind (Tt-S15)?
**A.** no binding

**Q.** Does B1 bind (Ec-S15 [1])?
**A.** no binding

B2: Rr-mRNA M1 (structured_RNA)
RNA: GGAUAGGCAGCGCCAGCUUGGGCUUUGCCUAUGCUGCUGAAUGGCCAGAGAAAGACGACAUCCCGGCUCUAGGCGUCCCCGUUUUUCCUUAAAACAAGAAAGGAUCGUACGAUGUCGAUUACUGCAGAGCGCAAAGCC
**Q.** What does the source list for B2?
**A.** Kd (Tt-S15): 8.8 ± 1.8 nM; Kd (Gk-S15 [2]): 11.8 ± 6.9 nM

B3: Ec-mRNA WT (structured_RNA)
RNA: ACUGGGAUCGCUGAAUUAGAGAUCGGCGUCCUUUCAUUCUAUAUACUUUGGAGUUUUAAAAUGUCUCUAAGUACUGAAGCAACAGCU
**Q.** Does B3 bind (Ec-S15 [3])?
**A.** no binding

B4: Tt-mRNA WT (structured_RNA)
RNA: GGCUUGGCGGGAGACCGCCUCGAGGAGGAAGGGGCUCAAAGCGCCUUCCCGCCUGACGGAGGGAAAACAUGCCCAUCACGAA
**Q.** Which Kd (Tt-S15; three-way junction) does the source give for B4 here?
**A.** 2.11 ± 0.25 nM

**Q.** And the Kd (Gk-S15 [2]; three-way junction)?
**A.** 0.35 ± 0.23 nM

B5: Tt-mRNA M1 (structured_RNA)
RNA: GGCUUGGCGGGAGACCGCCAAAUGGAGGAAGGGGCUCAAAGCGCCUUCCCGCCUGACGGAGGGAAAACAUGCCCAUCACGAA
**Q.** For B5, which Kd (Gk-S15 [4]) is on record?
**A.** 76.3 ± 5.7 nM
